Measurements as given in patent US20090162945.

How the values were obtained:
[1] = biological target: Synthetic 43-mer histone H3 (1-40) peptide tri-methylated at lysine 9, …(me3)…-Tyr-Cys-(Ttds)-Lys-biotin
[2] = biological target: Synthetic 43-mer histone H3 (1-40) peptide tri-methylated at lysine 27, …-Tyr-Cys-(Ttds)-Lys-biotin
Synthetic 43-mer histone H3 (1-40) peptide tri-methylated at lysine 27, …-Tyr-Cys-(Ttds)-Lys-biotin, sequence (chain, as listed by the source): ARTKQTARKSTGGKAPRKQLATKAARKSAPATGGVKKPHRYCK

Synthetic 43-mer histone H3 (1-40) peptide tri-methylated at lysine 9, …(me3)…-Tyr-Cys-(Ttds)-Lys-biotin, sequence (chain, as listed by the source): as above

Row | Protein | demethylation of H3K9me3 peptide, mass spectrometry [1] | formaldehyde release (demethylation-FDH-coupled assay) [1] | in vitro demethylation of synthetic peptide, western blotting [1] | demethylation assay, immunoblotting of the methylation mark [2] | demethylation of synthetic H3K9 peptides, western blotting [1]
1 | Recombinant full-length amino-terminally hexahistidine-tagged human GASC1 (protein) MEVAEVESPLNPSCKIMTFRPSMEEFREFNKYLAYMESKGAHRAGLAKVIPPKEWKPRQCYDDIDNLLIPAPIQQMVTGQSGLFTQYNIQKKAMTVKEFRQLANSGKYCTPRYLDYEDLERKYWKNLTFVAPIYGADINGSIYDEGVDEWNIARINTVLDVVEEECGISIEGVNTPYLYFGMWKTTFAWHTEDMDLYSINYLHFGEPKSWYAIPPEHGKRLERLAQGFFPSSSQGCDAFLRHKMTLISPSVLKKYGIPFDKITQEAGEFMITFPYGYHAGFNHGFNCAESTNFATVRWIDYGKVAKLCTCRKDMVKISMDIFVRKFQPDRYQLWKQGKDIYTIDHTKPTPASTPEVKAWLQRRRKVRKASRSFQCARSTSKRPKADEEEEVSDEVDGAEVPNPDSVTDDLKVSEKSEAAVKLRNTEASSEEESSASRMQVEQNLSDHIKLSGNSCLSTSVTEDIKTEDDKAYAYRSVPSISSEADDSIPLSTGYEKPEKSDPSELSWPKSPESCSSVAESNGVLTEGEESDVESHGNGLEPGEIPAVPSGERNSFKVPSIAEGENKTSKSWRHPLSRPPARSPMTLVKQQAPSDEELPEVLSIEEEVEETESWAKPLIHLWQTKSPNFAAEQEYNATVARMKPHCAICTLLMPYHKPDSSNEENDARWETKLDEVVTSEGKTKPLIPEMCFIYSEENIEYSPPNAFLEEDGTSLLISCAKCCVRVHASCYGIPSHEICDGWLCARCKRNAWTAECCLCNLRGGALKQTKNNRWAHVMCAVAVPEVRFTNVPERTQIDVGRIPLQRLKLKCIFCRHRVKRVSGACIQCSYGRCPASFHVTCAHAAGVLMEPDDWPYVVNITCFRHKVNPNVKSKACEKVISVGQTVITKHRNTRYYSCRVMAVTSQTFYEVMFDDGSFSRDTFPEDIVSRDCLKLGPPAEGEVVQVKWPDGKLYGAKYFGSNIAHMYQVEFEDGSQIAMKREDIYTLDEELPKRVKARFSTASDMRFEDTFYGADIIQGERKRQRVLSSRFKNEYVADPVYRTFLKSSFQKKCQKRQ | the majority of H3K9me3 peptide (approximately 80%) was converted to di- and mono-methylated H3-K9 after incubation of with GASC1 | recombinant His-tagged GASC1 released formaldehyde | Following 30 minutes incubation of pure tri-methylated H3K9 with GASC1 almost all tri-methyl H3K9 was converted to di- and mono-methyl H3K9 | tri-methylated H3K27 and tri-methylated H4K20 appeared to be unaffected by GASC1 treatment | –
2 | Recombinant full-length histidine-tagged human JMJD2a (protein) MASESETLNPSARIMTFYPTMEEFRNFSRYIAYIESQGAHRAGLAKVVPPKEWKPRASYDDIDDLVIPAPIQQLVTGQSGLFTQYNIQKKAMTVREFRKIANSDKYCTPRYSEFEELERKYWKNLTFNPPIYGADVNGTLYEKHVDEWNIGRLRTILDLVEKESGITIEGVNTPYLYFGMWKTSFAWHTEDMDLYSINYLHFGEPKSWYSVPPEHGKRLERLAKGFFPGSAQSCEAFLRHKMTLISPLMLKKYGIPFDKVTQEAGEFMITFPYGYHAGFNHGFNCAESTNFATRRWIEYGKQAVLCSCRKDMVKISMDVFVRKFQPERYKLWKAGKDNTVIDHTLPTPEAAEFLKESELPPRAGNEEECPEEDMEGVEDGEEGDLKTSLAKHRIGTKRHRVCLEIPQEVSQSELFPKEDLSSEQYEMTECPAALAPVRPTHSSVRQVEDGLTFPDYSDSTEVKFEELKNVKLEEEDEEEEQEAAALDLSVNPASVGGRLVFSGSKKKSSSSLGSGSSRDSISSDSETSEPLSCRAQGQTGVLTVHSYAKGDGRVTVGEPCTRKKGSAARSFSERELAEVADEYMFSLEENKKSKGRRQPLSKLPRHHPLVLQECVSDDETSEQLTPEEEAEETEAWAKPLSQLWQNRPPNFEAEKEFNETMAQQAPHCAVCMIFQTYHQVEFGGFNQNCGNASDLAPQKQRTKPLIPEMCFTSTGCSTDINLSTPYLEEDGTSILVSCKKCSVRVHASCYGVPPAKASEDWMCSRCSANALEEDCCLCSLRGGALQRANDDRWVHVSCAVAILEARFVNIAERSPVDVSKIPLPRFKLKCIFCKKRRKRTAGCCVQCSHGRCPTAFHVSCAQAAGVMMQPDDWPFVVFITCFRHKIPNLERAKGALQSITAGQKVISKHKNGRFYQCEVVRLTTETFYEVNFDDGSFSDNLYPEDIVSQDCLQFGPPAEGEVVQVRWTDGQVYGAKFVASHPIQMYQVEFEDGSQLVVKRDDVYTLDEELPKRVKSRLSVASDMRFNEIFTEKEVKQEKKRQRVINSRYREDYIEPALYRAIME | – | – | – | – | GASC1 and its homolog JMJD2A appeared to have a comparable ability to demethylate synthetic H3K9 substrates
